Data: paper PMC4754705

Target: Envy
Assay: SEC; gel filtration on a Superdex 200 column; 100 μL of 10 μM purified protein loaded, flow rate 0.5 ml/min, elution monitored by absorbance at 280 nm; self-association (monomer or dimer)

## Envy
  stoichiometry N: 2
